Our source for the binding result, reduction of FtsZ's GTP hydrolysis (regenerative coupled GTPase assay), 5 µM FtsZ, ratios FtsZ:OpgH^N of 1:1 (25%), 1:1.5 (55%) and 1:2 (84%); FtsZ alone 5.1 GTP/minute/FtsZ and apparent critical concentration (CcApp) of FtsZ for GTP hydrolysis values is article PMC3723540, “A Moonlighting Enzyme Links Escherichia coli Cell Size with Central Metabolism” (PLoS Genetics, 2013).

Series [1] deals with the molecule itself. Put plainly: 90° angle light scattering; 5 µM FtsZ in polymerization buffer (50 mM MES, 2.5 mM MgCl2, 1 mM EGTA, 50 mM KCl, pH 6.5), assembly started with 1 mM GTP, 30°C.
The target of series [2] is FtsZ (tubulin-like cell division protein) of E. coli, untagged (E. coli) (UniProt P0A9A6).
For series [3] the target is unchanged. This is another data set of the same source.

B1: FtsZ (tubulin-like cell division protein) of E. coli, untagged (natural protein, UniProt P0A9A6 1-383, looked up)
chain: MFEPMELTNDAVIKVIGVGGGGGNAVEHMVRERIEGVEFFAVNTDAQALRKTAVGQTIQIGSGITKGLGAGANPEVGRNAADEDRDALRAALEGADMVFIAAGMGGGTGTGAAPVVAEVAKDLGILTVAVVTKPFNFEGKKRMAFAEQGITELSKHVDSLITIPNDKLLKVLGRGISLLDAFGAANDVLKGAVQGIAELITRPGLMNVDFADVRTVMSEMGYAMMGSGVASGEDRAEEAAEMAISSPLLEDIDLSGARGVLVNITAGFDLRLDEFETVGNTIRAFASDNATVVIGTSLDPDMNDELRVTVVATGIGMDKRPEITLVTNKQVQQPVMDRYQQHGMAPLTQEQKPVAKVVNDNAPQTAKEPDYLDIPAFLRKQAD
notes: FtsZ, cell division protein of E. coli, in its native (untagged) form; also called E. coli FtsZ; source: untagged
With B1, the binding result in series [1] was “binds”.

B2: OpgH^N (N-terminal cytoplasmic domain of the glucosyltransferase OpgH, residues 1-138) (domain or fragment)
chain: MNKTTEYIDAMPIAASEKAALPKTDIRAVHQALDAEHRTWAREDDSPQGSVKARLEQAWPDSLADGQLIKDDEGRDQLKAMPEAKRSSMFPDPWRTNPVGRFWDRLRGRDVTPRYLARLTKEEQESEQKWRTVGTIRR
In the case of B2, the reduction of FtsZ's GTP hydrolysis (regenerative coupled GTPase assay), 5 µM FtsZ, ratios FtsZ:OpgH^N of 1:1 (25%), 1:1.5 (55%) and 1:2 (84%); FtsZ alone 5.1 GTP/minute/FtsZ in series [2] came out at 84%. Also, in series [3], the apparent critical concentration (CcApp) of FtsZ for GTP hydrolysis at 0 µM (0.69 µM), 2.5 µM (1.31 µM), 5 µM (1.85 µM) and 10 µM OpgH^N (4.08 µM) was determined as 4.08 µM.
